Test results reported in publication doi:10.1101/2023.07.20.549950.

Legend:
Test in all cases: filter binding
RBM15 RRM3 = biological target: T1, RBM15 RRM3 (UniProt Q96T37 455-529)
T1 sequence: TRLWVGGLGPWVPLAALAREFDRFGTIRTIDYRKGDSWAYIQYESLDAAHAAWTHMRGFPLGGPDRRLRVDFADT

RBM15 RRM1 = biological target: T2, RBM15 RRM1 (UniProt Q96T37 170-252)
T2 sequence: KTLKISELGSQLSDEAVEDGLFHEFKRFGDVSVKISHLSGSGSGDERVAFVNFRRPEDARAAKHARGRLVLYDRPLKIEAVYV

RBM15 RRM23 = biological target: T3, RBM15 RRM23 (UniProt Q96T37 374-529)
T3 sequence: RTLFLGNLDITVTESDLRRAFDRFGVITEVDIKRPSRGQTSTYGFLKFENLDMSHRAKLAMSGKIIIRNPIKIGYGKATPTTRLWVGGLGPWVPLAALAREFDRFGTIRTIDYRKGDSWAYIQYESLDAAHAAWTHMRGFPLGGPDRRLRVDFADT

RBM15 RRM12 = biological target: T4, RBM15 RRM12 (UniProt Q96T37 170-451)
T4 sequence: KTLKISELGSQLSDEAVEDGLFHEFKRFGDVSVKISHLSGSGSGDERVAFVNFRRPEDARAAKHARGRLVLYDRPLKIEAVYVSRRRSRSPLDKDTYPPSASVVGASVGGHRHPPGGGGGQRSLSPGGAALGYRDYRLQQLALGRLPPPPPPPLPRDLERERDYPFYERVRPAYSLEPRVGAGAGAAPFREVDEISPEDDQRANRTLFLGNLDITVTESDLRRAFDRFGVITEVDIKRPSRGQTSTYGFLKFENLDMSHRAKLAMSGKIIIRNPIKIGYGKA

RBM15 RRM123 = biological target: T5, RBM15 RRM123 (UniProt Q96T37 170-529)
T5 sequence: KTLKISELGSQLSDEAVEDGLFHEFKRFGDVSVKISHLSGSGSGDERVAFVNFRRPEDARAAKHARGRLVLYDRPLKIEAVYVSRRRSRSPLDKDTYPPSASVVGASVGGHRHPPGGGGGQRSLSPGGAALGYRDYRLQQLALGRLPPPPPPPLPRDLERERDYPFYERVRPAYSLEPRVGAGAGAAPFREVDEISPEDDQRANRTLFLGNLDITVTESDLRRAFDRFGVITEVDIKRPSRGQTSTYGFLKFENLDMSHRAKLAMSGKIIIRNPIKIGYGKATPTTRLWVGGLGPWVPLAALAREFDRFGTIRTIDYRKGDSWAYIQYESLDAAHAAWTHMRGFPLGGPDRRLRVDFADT

## GGUUCUUGAAAAGAGGACC (structured_RNA) [FIRRE RRD stem-loop (19nt)]
RBM15 RRM3
  Kd: ~100 nM
RBM15 RRM1
  Kd: 370 nM
RBM15 RRM23
  Kd: 99 nM
RBM15 RRM12
  Kd: 184 nM
RBM15 RRM123
  Kd: ~100 nM

## GGCCAACACUCUGGCCCAUCGGGGUGACGGCC (structured_RNA) [XIST A-repeat stem-loop (32nt)]
RBM15 RRM3
  Kd: ~100 nM
RBM15 RRM1
  Kd: 433 nM
RBM15 RRM23
  Kd: 50 nM
RBM15 RRM12
  Kd: 71 nM
RBM15 RRM123
  Kd: 79 nM
